Source: patent publication US20230233650A1, “NOVEL FATTY ACID MODIFIED UROCORTIN 2 DERIVATIVES AND THE USES THEREOF” (Novo Nordisk A/S, priority 2021, published 2023)
Numbered stars: 1 amine (or outer) side, 2 acyl side, 3 side chain; on linkers, the order of the positions; unused ones are H or OH. Side chains are listed from the residue outwards. Ends that are not written are not given here. * marks the point of attachment. C20 diacid = O=C(O)CCCCCCCCCCCCCCCCCCC(=O)*; γGlu = O=C(O)[C@H](CCC(=O)[*:2])N[*:1]; AEEA = NCCOCCOCC(=O)O

B1: Compound 3: N{epsilon}-[C20 diacid-3xgGlu-2xAdo]Lys-[Glu33,Glu37]-hUcn2 (peptide)
peptide: K([AEEA-AEEA-γGlu-γGlu-γGlu-C20 diacid])IVLSLDVPIGLLQILLEQARARAAREQATTNAEILAEV-NH2
modifications: N-terminus assumed
SMILES: CC[C@H](C)[C@H](NC(=O)[C@H](CCC(=O)O)NC(=O)[C@H](C)NC(=O)[C@H](CC(N)=O)NC(=O)[C@@H](NC(=O)[C@@H](NC(=O)[C@H](C)NC(=O)[C@H](CCC(N)=O)NC(=O)[C@H](CCC(=O)O)NC(=O)[C@H](CCCNC(=N)N)NC(=O)[C@H](C)NC(=O)[C@H](C)NC(=O)[C@H](CCCNC(=N)N)NC(=O)[C@H](C)NC(=O)[C@H](CCCNC(=N)N)NC(=O)[C@H](C)NC(=O)[C@H](CCC(N)=O)NC(=O)[C@H](CCC(=O)O)NC(=O)[C@H](CC(C)C)NC(=O)[C@H](CC(C)C)NC(=O)[C@@H](NC(=O)[C@H](CCC(N)=O)NC(=O)[C@H](CC(C)C)NC(=O)[C@H](CC(C)C)NC(=O)CNC(=O)[C@@H](NC(=O)[C@@H]1CCCN1C(=O)[C@@H](NC(=O)[C@H](CC(=O)O)NC(=O)[C@H](CC(C)C)NC(=O)[C@H](CO)NC(=O)[C@H](CC(C)C)NC(=O)[C@@H](NC(=O)[C@@H](NC(=O)[C@@H](N)CCCCNC(=O)COCCOCCNC(=O)COCCOCCNC(=O)CC[C@H](NC(=O)CC[C@H](NC(=O)CC[C@H](NC(=O)CCCCCCCCCCCCCCCCCCC(=O)O)C(=O)O)C(=O)O)C(=O)O)[C@@H](C)CC)C(C)C)C(C)C)[C@@H](C)CC)[C@@H](C)CC)[C@@H](C)O)[C@@H](C)O)C(=O)N[C@@H](CC(C)C)C(=O)N[C@@H](C)C(=O)N[C@@H](CCC(=O)O)C(=O)N[C@H](C(N)=O)C(C)C
B2: Compound 4: N{epsilon}-[C20 diacid-3xgGlu-2xAdo]Lys-[Glu33,Glu36]-hUcn2 (peptide)
peptide: K([AEEA-AEEA-γGlu-γGlu-γGlu-C20 diacid])IVLSLDVPIGLLQILLEQARARAAREQATTNAEILERV-NH2
modifications: N-terminus assumed
SMILES: CC[C@H](C)[C@H](NC(=O)[C@H](CCC(=O)O)NC(=O)[C@H](C)NC(=O)[C@H](CC(N)=O)NC(=O)[C@@H](NC(=O)[C@@H](NC(=O)[C@H](C)NC(=O)[C@H](CCC(N)=O)NC(=O)[C@H](CCC(=O)O)NC(=O)[C@H](CCCNC(=N)N)NC(=O)[C@H](C)NC(=O)[C@H](C)NC(=O)[C@H](CCCNC(=N)N)NC(=O)[C@H](C)NC(=O)[C@H](CCCNC(=N)N)NC(=O)[C@H](C)NC(=O)[C@H](CCC(N)=O)NC(=O)[C@H](CCC(=O)O)NC(=O)[C@H](CC(C)C)NC(=O)[C@H](CC(C)C)NC(=O)[C@@H](NC(=O)[C@H](CCC(N)=O)NC(=O)[C@H](CC(C)C)NC(=O)[C@H](CC(C)C)NC(=O)CNC(=O)[C@@H](NC(=O)[C@@H]1CCCN1C(=O)[C@@H](NC(=O)[C@H](CC(=O)O)NC(=O)[C@H](CC(C)C)NC(=O)[C@H](CO)NC(=O)[C@H](CC(C)C)NC(=O)[C@@H](NC(=O)[C@@H](NC(=O)[C@@H](N)CCCCNC(=O)COCCOCCNC(=O)COCCOCCNC(=O)CC[C@H](NC(=O)CC[C@H](NC(=O)CC[C@H](NC(=O)CCCCCCCCCCCCCCCCCCC(=O)O)C(=O)O)C(=O)O)C(=O)O)[C@@H](C)CC)C(C)C)C(C)C)[C@@H](C)CC)[C@@H](C)CC)[C@@H](C)O)[C@@H](C)O)C(=O)N[C@@H](CC(C)C)C(=O)N[C@@H](CCC(=O)O)C(=O)N[C@@H](CCCNC(=N)N)C(=O)N[C@H](C(N)=O)C(C)C

Assays:
[1] = target: T1, Pro-Link-tagged human CRF1 receptor (human, UniProt P34998 24-415); experiment: cell-based or functional assay
T1 sequence (looked up): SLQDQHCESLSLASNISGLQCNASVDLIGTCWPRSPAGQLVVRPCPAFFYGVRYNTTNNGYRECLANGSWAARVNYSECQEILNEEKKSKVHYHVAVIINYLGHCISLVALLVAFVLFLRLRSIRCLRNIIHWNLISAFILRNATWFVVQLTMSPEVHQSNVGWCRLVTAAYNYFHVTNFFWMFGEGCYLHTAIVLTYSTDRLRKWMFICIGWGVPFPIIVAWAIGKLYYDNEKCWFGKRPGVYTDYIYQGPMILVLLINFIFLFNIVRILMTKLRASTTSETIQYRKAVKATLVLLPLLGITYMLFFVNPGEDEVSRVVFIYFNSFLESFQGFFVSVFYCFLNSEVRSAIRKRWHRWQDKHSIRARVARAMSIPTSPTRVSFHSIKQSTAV

[2] = target: T2, Human CRF1 receptor (Corticotropin-Releasing Factor receptor 1) (human), P34998; experiment: SPA, displacement of [125I]-Sauvagine from membranes of CHO-K1 cells expressing the CRF1 receptor; settings: remark: other sources report otherwise
T2 chain: T1 sequence (looked up)

[3] = target: T3, Human CRF2 receptor (Corticotropin-Releasing Factor receptor 2) (human) (UniProt Q13324); experiment: SPA, displacement of [125I]-Sauvagine from membranes of CHO-K1 cells expressing the CRF2 receptor
T3 sequence (looked up): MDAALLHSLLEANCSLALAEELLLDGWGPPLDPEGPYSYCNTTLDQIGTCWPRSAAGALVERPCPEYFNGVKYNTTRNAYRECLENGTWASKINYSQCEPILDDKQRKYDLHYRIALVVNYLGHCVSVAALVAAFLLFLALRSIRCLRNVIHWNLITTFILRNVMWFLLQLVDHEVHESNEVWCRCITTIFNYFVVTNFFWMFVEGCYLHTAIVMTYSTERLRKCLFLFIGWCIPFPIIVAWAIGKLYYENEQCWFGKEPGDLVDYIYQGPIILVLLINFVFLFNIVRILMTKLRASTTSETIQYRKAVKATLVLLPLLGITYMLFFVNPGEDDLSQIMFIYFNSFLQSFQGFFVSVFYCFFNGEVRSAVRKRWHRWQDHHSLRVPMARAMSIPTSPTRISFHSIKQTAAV

[4] = target: T4, Pro-Link-tagged human CRF2 receptor (human, UniProt Q13324 20-411); experiment: cell-based or functional assay
T4 sequence (looked up): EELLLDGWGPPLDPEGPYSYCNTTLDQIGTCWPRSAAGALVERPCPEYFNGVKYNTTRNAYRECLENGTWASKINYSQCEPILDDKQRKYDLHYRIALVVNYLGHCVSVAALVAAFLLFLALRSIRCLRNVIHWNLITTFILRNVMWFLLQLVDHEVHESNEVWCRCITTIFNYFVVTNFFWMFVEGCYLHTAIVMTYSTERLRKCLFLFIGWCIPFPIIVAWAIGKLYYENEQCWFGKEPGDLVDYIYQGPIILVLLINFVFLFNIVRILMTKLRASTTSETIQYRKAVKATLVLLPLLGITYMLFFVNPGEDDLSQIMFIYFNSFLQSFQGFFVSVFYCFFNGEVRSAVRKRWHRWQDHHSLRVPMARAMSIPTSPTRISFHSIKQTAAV

[5] = target: T5, Human CRF1 receptor (Corticotropin-Releasing Factor receptor 1) (human, UniProt P34998 24-415); experiment: SPA, displacement of [125I]-Sauvagine from membranes of CHO-K1 cells expressing the CRF1 receptor
T5 construct: whole, on cells; also called type 1 CRF receptor
T5 sequence (looked up): T1 sequence (looked up)
Method: Scintillation Proximity Assay: CHO-K1 cells expressing either the CRF₁ receptor or the CRF₂ receptor were obtained from DiscoveRx. Both cell lines were cultured at 37° C. in a humidified atmosphere with 5% CO₂. The culture media used was Ham’s F-12 Nutrient Mix with Glutamax (Gibco) containing 10% fetal bovine serum, 1% Pen/Strep, 800 µg/ml G418 and 300 µg/ml Hygromycin B. Membranes were prepared by the following protocol: cultured cells were washed twice with cold Dulbecco’s phosphate buffered saline and detached using TrypLE™ (ThermoFisher) and transferred to tubes and centrifuged for 5 minutes at 1000 g at +4° C. Pellets were resuspended in ice cold homogenization buffer (20 mM Hepes pH 7.1, 5 mM MgCl₂, 1 mg/ml Bacitracin with 2 complete EDTA-free protease inhibitor cocktail tablets/50 ml (Roche)) and then homogenized for 30 seconds using a Ultra-Turrax T25 tissue homogenizer (IKA) at medium speed. The homogenate was centrifuged at 35,000 g for 15 minutes at +4° C. using an ultracentrifuge, and the supernatant was discarded, and fresh homogenization buffer was added. Homogenization of the pellet was repeated a total of three times. The final pellet was resuspended in a few millilitres of homogenization buffer and protein concentration was determined using the Bradford method. The membrane preparation was transferred to cryotubes, and the aliquots were stored at -80° C. […]

Binder | Human CRF1 receptor EC50 [nM] (beta-arrestin recruitment, PathHunter) [1] | IC50 [2] [nM] | IC50 [3] [nM] | Human CRF2 receptor EC50 [nM] (beta-arrestin recruitment, PathHunter) [4] | IC50 [5] [nM]
IVLSLDVPIGLLQILLEQARARAAREQATTNARILARV-NH2 [Compound 2 - hUcn2 (human Urocortin 2 peptide)] | > 10000 | 447 | 0.58 | – | –
B1 | > 10000 | – | – | 55 | –
B2 | > 10000 | – | – | 42 | –
DNPSLSIDLTFHLLRTLLELARTQSQRERAEQNRIIFDSV-NH2 (also called human Ucn1) [Compound 1 - hUcn1 (human Urocortin 1 peptide)] | 22 | – | – | 31 | 0.07
